In the supplement of paper PMC12764529:
± gives the half width of the 95% confidence interval.

Assays:
[1] = folding stability dG unfold from trypsin proteolysis; higher = more stable
Method in brief: (§1)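 Designed mini-proteins (under 80 residues, no cysteine) in a PA-tagged cDNA display construct were digested with trypsin and chymotrypsin. Each protease was used at 11 concentrations (threefold dilutions) plus a no-protease condition, followed by sequencing. K50 was inferred by Bayesian fitting of sequencing counts, and unfolding free energy was derived against a sequence-predicted unfolded-state K50 and a shared folded-state K50, per protease or combined. Only designs with AlphaFold2 dimer inter-PAE above 15 were kept.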

[2] = folding stability dG unfold from chymotrypsin proteolysis; higher = more stable
Method in brief: as §1

[3] = folding stability dG unfold (combined trypsin and chymotrypsin); higher = more stable
Method in brief: as §1

| Sequence | folding stability dG unfold [1] | folding stability dG unfold [2] | folding stability dG unfold [3] |
| --- | --- | --- | --- |
| SAGGSAGGSAGKKITIPNLDVMRNPDDGMAFIQFGGQMIMIPPNVKIEQDPNGWMEIELPSAGGSAGGSAGG [r17_34_TrROS] | 0.625 ± 0.064 kcal/mol | -0.845 ± 0.69 kcal/mol | 0.144 ± 0.12 kcal/mol |
| SAGGSAGGSAGKKITLPNATITYDEETGEVTITVDGKTITLPPGAKIEVDENGNLTIYLPSAGGSAGGSAGG [r17_34_TrROS_Hall] | 2.45 ± 0.1 kcal/mol | 2.71 ± 0.075 kcal/mol | 2.55 ± 0.12 kcal/mol |
| SAGGSAGGSAGKKKILLKFKSAEEALEAIKKGKTIKLKNGKTVKVKKVTLDKNGYLLIELSAGGSAGGSAGG [r11_48_TrROS_Hall] | 2.23 ± 0.034 kcal/mol | 2.547 ± 0.021 kcal/mol | 2.44 ± 0.06 kcal/mol |
| SAGGSAGGSAGKKKKIFLIKIEVVKVKVEKRKKKDGKLEEKVEIEIKIEITEIPLPPELLSAGGSAGGSAGG [r11_24_TrROS_Hall] | 2.81 ± 0.12 kcal/mol | 3.02 ± 0.058 kcal/mol | 2.94 ± 0.19 kcal/mol |
| SAGGSAGGSAGKKKKKPKPIVLVIKVKTKEEAEKLAEKLKELGFKVEIVEKKDGYLVIKLSAGGSAGGSAGG [r17_323_TrROS_Hall] | 2.11 ± 0.12 kcal/mol | 3.8 ± 0.15 kcal/mol | 3.39 ± 0.18 kcal/mol |
| SAGGSAGGSAGKKKLRLTLPGAEVEYDAATNELTIRLKAPPPPPKTTTKVETKTVLLPGKSAGGSAGGSAGG [r11_149_TrROS_Hall] | 0.792 ± 0.076 kcal/mol | 1.2 ± 0.095 kcal/mol | 0.989 ± 0.18 kcal/mol |
| SAGGSAGGSAGKKTVVIKDAEIVEVEEENGYLKVRIKVTNPDGSEEEFTFTFKPGDVIELSAGGSAGGSAGG [r11_211_TrROS_Hall] | 2.01 ± 0.07 kcal/mol | 3.11 ± 0.059 kcal/mol | 2.71 ± 0.17 kcal/mol |
| SAGGSAGGSAGKKVLVLSEDEIAELLGLSKEEIENMSEEEKEKLALELAKKLGIDEVIITSAGGSAGGSAGG [r11_80_TrROS_Hall] | 3.76 ± 0.11 kcal/mol | 3.31 ± 0.094 kcal/mol | 3.54 ± 0.055 kcal/mol |
| SAGGSAGGSAGKLKIKKVKVVKTETFTLPNGYTIKVSYVEVEVDGKKYLFKSVEIYPKKESAGGSAGGSAGG [r11_129_TrROS_Hall] | 2.02 ± 0.1 kcal/mol | 3.09 ± 0.033 kcal/mol | 2.85 ± 0.15 kcal/mol |
| SAGGSAGGSAGKLPPGAKVEEVFEVEIEVTYLNPDTGEEVEKEKITVRVVKVDGKLVIEFSAGGSAGGSAGG [r11_415_TrROS_Hall] | 1.39 ± 0.11 kcal/mol | 2.79 ± 0.31 kcal/mol | 2.04 ± 0.25 kcal/mol |
| SAGGSAGGSAGKLYIIRIKGKKIILSEDEVEKLKKKYPNAEIIPFKSKEDAEKALKKLKESAGGSAGGSAGG [r11_60_TrROS_Hall] | 2.16 ± 0.057 kcal/mol | 2.75 ± 0.079 kcal/mol | 2.52 ± 0.13 kcal/mol |
| SAGGSAGGSAGKMKIRVKIKRKDGKTLVIEGMSLEEIKELAEKEGFEIEKVEVVEVEPEESAGGSAGGSAGG [r11_283_TrROS_Hall] | 3.23 ± 0.26 kcal/mol | 4.24 ± 0.13 kcal/mol | 4.02 ± 0.21 kcal/mol |
| SAGGSAGGSAGKMLLIEIEVDGKKYLIEIEVPEGEEITPEELAKLLGIPNVKVKVYELEESAGGSAGGSAGG [r11_219_TrROS_Hall] | 2.47 ± 0.065 kcal/mol | 3.41 ± 0.04 kcal/mol | 3.11 ± 0.13 kcal/mol |
| SAGGSAGGSAGKMYRITVTNENGEKLEIEVPEEVKTEEELKEELKKKIPNVVEVKIEEVPSAGGSAGGSAGG [r11_311_TrROS_Hall] | 0.242 ± 0.096 kcal/mol | 0.433 ± 0.14 kcal/mol | 0.377 ± 0.25 kcal/mol |
| SAGGSAGGSAGKPEVEVETRLIKIDEEKGYYLRVTRVRVKNEDGSEFEFLSIEIIPKEDLSAGGSAGGSAGG [r11_51_TrROS_Hall] | 2.6 ± 0.098 kcal/mol | 3.91 ± 0.052 kcal/mol | 3.56 ± 0.071 kcal/mol |
| SAGGSAGGSAGKPKKKPPKPKIETKTITVTITNKDGSKTTVTATIVRNKDTNELFIRISSSAGGSAGGSAGG [r11_1024_TrROS_Hall] | 3.07 ± 0.16 kcal/mol | 3.13 ± 0.12 kcal/mol | 2.98 ± 0.22 kcal/mol |
| SAGGSAGGSAGKPLKVKKFEVELLVRDPETNRWYRIRAEVYRVEGLPDLFIIKLEIEELPSAGGSAGGSAGG [r11_1029_TrROS_Hall] | 3.96 ± 0.12 kcal/mol | 4.82 ± 0.099 kcal/mol | 4.6 ± 0.11 kcal/mol |
| SAGGSAGGSAGKPNIKKEANLEIFVTEDELEKALEIVKKLEEEGIEVKEAKIYVLKPEEGSAGGSAGGSAGG [r11_533_TrMRF] | -0.858 ± 0.23 kcal/mol | -0.299 ± 0.39 kcal/mol | -0.318 ± 0.21 kcal/mol |

| Sequence | folding stability dG unfold [1] | folding stability dG unfold [2] | folding stability dG unfold [3] |
| --- | --- | --- | --- |
| SAGGSAGGSAGKQPIEMWFMFPNGVAIVLRIKVDPPSPKAKIDAIEVVPVRDPDNGKWRFSAGGSAGGSAGG [r11_919_TrROS] | 0.566 ± 0.11 kcal/mol | 1.85 ± 0.1 kcal/mol | 1.38 ± 0.14 kcal/mol |
| SAGGSAGGSAGKTIYAPYSKIPEVIEELKKKGYEIDSIEKVPNGSYKISFKNKPIEINLGSAGGSAGGSAGG [r17_379_TrMRF] | 3.24 ± 0.078 kcal/mol | 3.83 ± 0.048 kcal/mol | 3.65 ± 0.088 kcal/mol |
| SAGGSAGGSAGKTYTFRVRIVDEETGEEKEIEVTAKSEEEAKKAAEELKKKYPNLKVELESAGGSAGGSAGG [r11_233_TrROS_Hall] | 2.98 ± 0.13 kcal/mol | 3.24 ± 0.036 kcal/mol | 3.22 ± 0.14 kcal/mol |
| SAGGSAGGSAGKVTLVFKTKEDALNAIKELAEKEGLKVKIVKIEELPNGLIKITVEIEKPSAGGSAGGSAGG [r11_304_TrROS_Hall] | 3.99 ± 0.25 kcal/mol | 4.2 ± 0.095 kcal/mol | 4.22 ± 0.17 kcal/mol |
| SAGGSAGGSAGKWKTITILIPNMPVEEIADRIMDKFGPGIRITEITPNKPGWFWITIIVRSAGGSAGGSAGG [r11_580_TrROS] | 3.29 ± 0.075 kcal/mol | 3.823 ± 0.037 kcal/mol | 3.62 ± 0.069 kcal/mol |
| SAGGSAGGSAGLAEKLRDEIRESIKGPDGLEVPDDVELLSIDVPEDSAFVEVRFPADLPVSAGGSAGGSAGG [r17_519_TrMRF] | 0.436 ± 0.025 kcal/mol | 0.233 ± 0.02 kcal/mol | 0.363 ± 0.089 kcal/mol |
| SAGGSAGGSAGLDNIKPEELKKLFPGYKVYLLKVEEVGGKLKVDVKILKYNPSTNTWTPESAGGSAGGSAGG [r11_20_TrMRF] | 1.13 ± 0.044 kcal/mol | 1.59 ± 0.14 kcal/mol | 1.48 ± 0.11 kcal/mol |
| SAGGSAGGSAGLEIKIPNGNKTITVEKTKDYYKATIYFPETGEKVEFTFPPNVSLSLLDISAGGSAGGSAGG [r11_772_TrMRF] | 1.98 ± 0.11 kcal/mol | 1.12 ± 0.073 kcal/mol | 1.62 ± 0.18 kcal/mol |
| SAGGSAGGSAGLPEEIADFVKEILEKAFPNVKVLEVEVEELPEGFYVVRARFEDGSEVEFPISAGGSAGGSA [r18_423_TrMRF] | 4.29 ± 0.091 kcal/mol | 3.47 ± 0.059 kcal/mol | 3.88 ± 0.069 kcal/mol |
| SAGGSAGGSAGLPENVKLVKVTVTITYPNGEKETIPVVAPVPVLEKLLSLPGLPVSVTDESAGGSAGGSAGG [r17_313_TrMRF] | 0.465 ± 0.028 kcal/mol | 0.0595 ± 0.071 kcal/mol | 0.333 ± 0.12 kcal/mol |
| SAGGSAGGSAGLPGAEKARKPKPKVKVKVTLTVLPDGTLVLRVTFEDGTTKTITLKLHPDLLSAGGSAGGSA [r18_192_TrMRF] | 2.37 ± 0.13 kcal/mol | 3.55 ± 0.11 kcal/mol | 3.08 ± 0.24 kcal/mol |
| SAGGSAGGSAGLPPGDYRLFPFTVTITIPPIKVKDPNGDEHEIDNLEISITIYFFVPAGDSAGGSAGGSAGG [r11_907_TrROS] | 3.43 ± 0.15 kcal/mol | 4.58 ± 0.12 kcal/mol | 4.03 ± 0.34 kcal/mol |
| SAGGSAGGSAGLTKPVEVEVEEDGTVTIKTLSIVPVDDGYELHEETTEIPLSPEEIAALQSAGGSAGGSAGG [r17_415_JUSTAS] | 0.504 ± 0.035 kcal/mol | -0.158 ± 0.33 kcal/mol | 0.327 ± 0.17 kcal/mol |
| SAGGSAGGSAGMEPPEIKVEVSSDPTPSGMKVETIKDLGKGKTIIVLKPEDGSVSTSTLESAGGSAGGSAGG [r11_55_JUSTAS] | -0.0544 ± 0.19 kcal/mol | 0.286 ± 0.13 kcal/mol | 0.0414 ± 0.44 kcal/mol |
| SAGGSAGGSAGMETIRLTFTVPGPDDRYYRVSVEARINPPTGEIEILRVEITPLDNPDAISAGGSAGGSAGG [r11_777_TrMRF] | 3.09 ± 0.12 kcal/mol | 3.93 ± 0.035 kcal/mol | 3.69 ± 0.052 kcal/mol |
| SAGGSAGGSAGMEVILLEVDSEEEAEKLVKELSEKYGYPVKVEKDPENPKLVTLTIEKPKSAGGSAGGSAGG [r11_797_JUSTAS] | 1.41 ± 0.066 kcal/mol | 1.16 ± 0.039 kcal/mol | 1.36 ± 0.067 kcal/mol |
| SAGGSAGGSAGMEYSIDKASGKILIKIPDEDKTWILYDPKTGEKYIFKQIGGKWYKVEKVSAGGSAGGSAGG [r11_1036_TrMRF] | 1.57 ± 0.058 kcal/mol | 1.87 ± 0.14 kcal/mol | 1.91 ± 0.26 kcal/mol |
